# Positions count from the first letter of the chain named.
# B1: FW1_var9 antibody (antibody, V domains shown)
# VH: QVQLVQSGAEVKKPGASVKVSCKASGYTFTSYWMHWVRQAPGQGLEWMGETNPSNSVTNYAQKFQGRVTLTVDTSTSTAYMELSSLRSEDTAVYYCTIGRGRGFAYWGQGTLVTVSS
# VL: DIQMTQSPSSVSASVGDRVTITCRASQNINFWLSWYQQKPGKAPKLLIYKASNLHTGVPSRFSGSGSGTDFTLTISSLQPEDFATYYCLQGQSYPYTFGGGTKLEIK
# B2: FW1_var10 antibody (antibody, V domains shown)
# VH: B1 VH with V93T
# VL: B1 VL
# B3: FW2_var2 antibody (antibody, V domains shown)
# VH: B1 VH with A16S, T74K
# VL: B1 VL with V11L, A43I, F83V
# B4: FW1_var14 antibody (antibody, V domains shown)
# VH: B1 VH with V93T
# VL: B1 VL with K45R
# B5: IGF11-16 with alanine substitution of S at position 54 (CDR-H2) (antibody, mouse IgG1, V domains shown)
# VH: QIQLQQPGAELVKPGASVKLSCKAPGYTFTSYWMHWVKQRPGQGLEWIGETNPANSVTNYNEKFKSKATLTVDKSSSTAYMQLSSLTSEDSAVYYCTIGRGRGFAYWGQGTLVTVSA
# VL: B1 VL with T5N, V11L, V15L, R18T, V19I, Y36C, K42N, A43I, F83I
# B6: IGF11-16 with alanine substitution of H at position 35 (CDR-H1) (antibody, mouse IgG1, V domains shown)
# VH: B5 VH with H35A, A54S
# VL: B1 VL with T5N, V11L, V15L, R18T, V19I, Y36C, K42N, A43I, F83I
# B7: IGF11-16 with alanine substitution of S at position 56 (CDR-H2) (antibody, mouse IgG1, V domains shown)
# VH: B5 VH with A54S, S56A
# VL: B1 VL with T5N, V11L, V15L, R18T, V19I, Y36C, K42N, A43I, F83I
# B8: IGF11-16 with alanine substitution of N at position 52 (CDR-H2) (antibody, mouse IgG1, V domains shown)
# VH: B5 VH with N52A, A54S
# VL: B1 VL with T5N, V11L, V15L, R18T, V19I, Y36C, K42N, A43I, F83I
# B9: IGF11-16 with alanine substitution of N at position 59 (CDR-H2) (antibody, mouse IgG1, V domains shown)
# VH: B5 VH with A54S, N59A
# VL: B1 VL with T5N, V11L, V15L, R18T, V19I, Y36C, K42N, A43I, F83I
# B10: IGF11-16 with alanine substitution of N at position 55 (CDR-H2) (antibody, mouse IgG1, V domains shown)
# VH: B5 VH with A54S, N55A
# VL: B1 VL with T5N, V11L, V15L, R18T, V19I, Y36C, K42N, A43I, F83I
# B11: IGF11-16 with alanine substitution of W at position 33 (CDR-H1) (antibody, mouse IgG1, V domains shown)
# VH: B5 VH with W33A, A54S
# VL: B1 VL with T5N, V11L, V15L, R18T, V19I, Y36C, K42N, A43I, F83I
# B12: IGF11-16 with alanine substitution of F at position 64 (CDR-H2) (antibody, mouse IgG1, V domains shown)
# VH: B5 VH with A54S, F64A
# VL: B1 VL with T5N, V11L, V15L, R18T, V19I, Y36C, K42N, A43I, F83I
# Biological target: T1, IGF-1 receptor on the cells of the PathHunter IGF1R Functional Assay (DiscoverX) (UniProt P08069 31-1367)
# T1 sequence (P08069 31-1367): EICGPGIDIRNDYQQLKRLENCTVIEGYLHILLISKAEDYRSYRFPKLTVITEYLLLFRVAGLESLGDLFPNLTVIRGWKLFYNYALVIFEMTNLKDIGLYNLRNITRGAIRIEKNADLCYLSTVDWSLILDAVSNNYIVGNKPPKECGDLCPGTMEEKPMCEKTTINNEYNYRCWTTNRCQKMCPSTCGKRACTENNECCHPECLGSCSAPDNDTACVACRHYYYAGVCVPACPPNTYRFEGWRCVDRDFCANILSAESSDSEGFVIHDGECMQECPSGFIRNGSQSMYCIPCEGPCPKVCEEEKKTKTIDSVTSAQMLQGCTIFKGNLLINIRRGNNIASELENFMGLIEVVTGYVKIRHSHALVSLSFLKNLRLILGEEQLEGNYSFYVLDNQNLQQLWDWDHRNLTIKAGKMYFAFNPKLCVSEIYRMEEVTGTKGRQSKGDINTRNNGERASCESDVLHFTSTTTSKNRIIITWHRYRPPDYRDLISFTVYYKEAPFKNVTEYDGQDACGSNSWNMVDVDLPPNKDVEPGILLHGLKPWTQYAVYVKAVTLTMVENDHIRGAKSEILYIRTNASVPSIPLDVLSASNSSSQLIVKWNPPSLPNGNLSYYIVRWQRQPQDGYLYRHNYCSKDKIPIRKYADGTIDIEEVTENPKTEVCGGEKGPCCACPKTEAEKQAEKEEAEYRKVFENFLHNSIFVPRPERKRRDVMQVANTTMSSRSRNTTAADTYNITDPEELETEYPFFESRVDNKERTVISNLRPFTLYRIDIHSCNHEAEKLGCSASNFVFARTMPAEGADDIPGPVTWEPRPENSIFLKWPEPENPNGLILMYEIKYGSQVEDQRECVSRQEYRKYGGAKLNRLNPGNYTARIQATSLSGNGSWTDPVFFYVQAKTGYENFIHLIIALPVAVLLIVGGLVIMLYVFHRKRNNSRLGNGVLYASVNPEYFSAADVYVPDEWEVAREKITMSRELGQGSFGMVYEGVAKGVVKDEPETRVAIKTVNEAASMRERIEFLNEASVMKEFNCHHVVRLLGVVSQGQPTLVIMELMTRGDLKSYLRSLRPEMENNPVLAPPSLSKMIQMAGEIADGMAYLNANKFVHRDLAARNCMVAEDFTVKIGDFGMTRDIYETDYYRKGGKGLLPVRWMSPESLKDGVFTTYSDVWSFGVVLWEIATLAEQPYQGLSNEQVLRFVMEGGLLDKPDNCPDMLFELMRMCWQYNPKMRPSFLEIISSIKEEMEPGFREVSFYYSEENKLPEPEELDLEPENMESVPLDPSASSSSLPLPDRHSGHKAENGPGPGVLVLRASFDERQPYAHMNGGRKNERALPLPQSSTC
# Assay: cell-based or functional assay
"Activation intensity (RLU), PathHunter","Fluorescence intensity (0.1 nM) (RLU), PathHunter","Fluorescence intensity (12.5 nM) (RLU), PathHunter","Ratio of activation intensity, PathHunter",Binder
1450 RLU,591 RLU,2040 RLU,0.67 relative to IGF11-16,B1
1350 RLU,516 RLU,1860 RLU,0.62 relative to IGF11-16,B2
1320 RLU,572 RLU,1890 RLU,0.61 relative to IGF11-16,B3
1340 RLU,558 RLU,1900 RLU,0.62 relative to IGF11-16,B4

# Biological target: T1, IGF-1 receptor on the cells of the …
# Assay: cell-based or functional assay
# Remark: another data set of the same source
"Signal activation EC50 vs IGF11-16, PathHunter","Signal activation Emax vs IGF11-16, PathHunter",Binder
2.5 ratio vs IGF11-16,1 ratio vs IGF11-16,B5
2.2 ratio vs IGF11-16,1 ratio vs IGF11-16,B6
2.9 ratio vs IGF11-16,1.1 ratio vs IGF11-16,B7
2.7 ratio vs IGF11-16,0 ratio vs IGF11-16,B8
2.3 ratio vs IGF11-16,0.9 ratio vs IGF11-16,B9
3 ratio vs IGF11-16,1 ratio vs IGF11-16,B10
0.5 ratio vs IGF11-16,0 ratio vs IGF11-16,B11
2.4 ratio vs IGF11-16,0.9 ratio vs IGF11-16,B12
